Assay results published in paper PMC6981161.
Where no end group is shown, it is not given here. The star is where a group is joined. Biotin = O=C1N[C@H]2[C@H](CS[C@H]2CCCCC(=O)*)N1

Assays:
[1] = target: proteins of hBMECs (protein extract coated in microtiter wells, ELISA with recombinant ligands) (human (endogenous in hBMECs)); test: ELISA; protein extract of hBMECs coated in microtiter wells, blocked; recombinant ligand added; detected with HisProbe-HRP conjugate and TMB substrate, absorbance at 450 nm; semi-quantitative
[2] = target: proteins of hBMECs (protein extract coated in microtiter wells, ELISA with synthetic analogues) (human (endogenous in hBMECs)); test: ELISA; protein extract of hBMECs coated in microtiter wells, blocked; biotinylated synthetic peptide added; detected with streptavidin-HRP conjugate; semi-quantitative

Row | Molecule | absorbance at 450 nm (absorbance at 450 nm) [1] | absorbance [2] [absorbance]
1 | recombinant domain III of protein E of West Nile virus (domain or fragment) | 2.2 | 
2 | recombinant NadA (neisserial adhesin A) of Neisseria meningitidis, globular domain with the first coiled-coil structure (domain or fragment) | 1.14 | 
3 | GTTYGVCSK(Biotin) [DIII-1 synthetic analogue (…-biotin)] |  | 2.06
